Laboratory results published in PMC3730827 (Cell, 2013).

Assays:
Test in all cases: cryo-EM structure
[1] = molecular target: ribosomal protein S10e (rabbit 40S subunit) (rabbit, UniProt G1T168 1-165)
[2] = molecular target: ribosomal protein S3e (rabbit 40S subunit) (rabbit, UniProt G1TNM3 1-243)
[3] = molecular target: ribosomal protein S12e (rabbit 40S subunit) (rabbit, UniProt G1SFR8 1-132)
[4] = molecular target: ribosomal protein S23e (rabbit 40S subunit) (rabbit, UniProt G1SZ47 1-143)

binding result [1]: binds
binding result [2]: binds
binding result [3]: binds
binding result [4]: binds
B1: DHX29, recombinant human (enzyme)
chain: MGGKNKKHKAPAAAVVRAAVSASRAKSAEAGIAGEAQSKKPVSRPATAAAAAAGSREPRVKQGPKIYSFNSTNDSSGPANLDKSILKVVINNKLEQRIIGVINEHKKQNNDKGMISGRLTAKKLQDLYMALQAFSFKTKDIEDAMTNTLLYGGDLHSALDWLCLNLSDDALPEGFSQEFEEQQPKSRPKFQSPQIQATISPPLQPKTKTYEEDPKSKPKKEEKNMEVNMKEWILRYAEQQNEEEKNENSKSLEEEEKFDPNERYLHLAAKLLDAKEQAATFKLEKNKQGQKEAQEKIRKFQREMETLEDHPVFNPAMKISHQQNERKKPPVATEGESALNFNLFEKSAAATEEEKDKKKEPHDVRNFDYTARSWTGKSPKQFLIDWVRKNLPKSPNPSFEKVPVGRYWKCRVRVIKSEDDVLVVCPTILTEDGMQAQHLGATLALYRLVKGQSVHQLLPPTYRDVWLEWSDAEKKREELNKMETNKPRDLFIAKLLNKLKQQQQQQQQHSENKRENSEDPEESWENLVSDEDFSALSLESANVEDLEPVRNLFRKLQSTPKYQKLLKERQQLPVFKHRDSIVETLKRHRVVVVAGETGSGKSTQVPHFLLEDLLLNEWEASKCNIVCTQPRRISAVSLANRVCDELGCENGPGGRNSLCGYQIRMESRACESTRLLYCTTGVLLRKLQEDGLLSNVSHVIVDEVHERSVQSDFLLIILKEILQKRSDLHLILMSATVDSEKFSTYFTHCPILRISGRSYPVEVFHLEDIIEETGFVLEKDSEYCQKFLEEEEEVTINVTSKAGGIKKYQEYIPVQTGAHADLNPFYQKYSSRTQHAILYMNPHKINLDLILELLAYLDKSPQFRNIEGAVLIFLPGLAHIQQLYDLLSNDRRFYSERYKVIALHSILSTQDQAAAFTLPPPGVRKIVLATNIAETGITIPDVVFVIDTGRTKENKYHESSQMSSLVETFVSKASALQRQGRAGRVRDGFCFRMYTRERFEGFMDYSVPEILRVPLEELCLHIMKCNLGSPEDFLSKALDPPQLQVISNAMNLLRKIGACELNEPKLTPLGQHLAALPVNVKIGKMLIFGAIFGCLDPVATLAAVMTEKSPFTTPIGRKDEADLAKSALAMADSDHLTIYNAYLGWKKARQEGGYRSEITYCRRNFLNRTSLLTLEDVKQELIKLVKAAGFSSSTTSTSWEGNRASQTLSFQEIALLKAVLVAGLYDNVGKIIYTKSVDVTEKLACIVETAQGKAQVHPSSVNRDLQTHGWLLYQEKIRYARVYLRETTLITPFPVLLFGGDIEVQHRERLLSIDGWIYFQAPVKIAVIFKQLRVLIDSVLRKKLENPKMSLENDKILQIITELIKTENN
